This passage reports Kd, binding result and dH results from PMC3760798, “Analysis of the RelA:CBP/p300 Interaction Reveals Its Involvement in NF-κB-Driven Transcription” (PLoS Biology, 2013).

Substitutions are numbered along the chain they refer to. In names and notes the source's numbering stands.

B1: GB1-tagged RelA–TA2 fragment 425–508 wt (domain or fragment, mouse, UniProt Q04207 425-508, looked up)
chain: KSTQAGEGTLSEALLHLQFDADEDLGALLGNSTDPGVFTDLASVDNSEFQQLLNQGVSMSHSTAEPMLMEYPEAITRLVTGSQR
notes: GB1 is the 58-residue B1 domain of streptococcal protein G, kept for concentration determination; also called RelA–TA2 fragment of Lys425–Arg508; source: expressed as His6-GB1 fusion, purified; His6-tag cleaved by TEV protease; not shown: His6, N-terminal, cleaved; GB1, N-terminal, kept
B2: GB1-tagged RelA–TA2 fragment 425–508 (S467D) (domain or fragment, mouse, UniProt Q04207 425-508, looked up)
chain: B1 chain with S43D
notes: also called RelA(Ser467Asp); phosphomimetic mutant; source: expressed as His6-GB1 fusion, purified; His6-tag cleaved by TEV protease; not shown: His6, N-terminal, cleaved; GB1, N-terminal, kept
B3: GB1-tagged RelA–TA2 fragment 425–508 (L449A) (domain or fragment, mouse, UniProt Q04207 425-508, looked up)
chain: B1 chain with L25A
notes: also called Leu449Ala; source: expressed as His6-GB1 fusion, purified; His6-tag cleaved by TEV protease; not shown: His6, N-terminal, cleaved; GB1, N-terminal, kept
B4: GB1-tagged RelA–TA2 fragment 425–508 (L465A) (domain or fragment, mouse, UniProt Q04207 425-508, looked up)
chain: B1 chain with L41A
notes: also called Leu465Ala; source: expressed as His6-GB1 fusion, purified; His6-tag cleaved by TEV protease; not shown: His6, N-terminal, cleaved; GB1, N-terminal, kept
B5: GB1-tagged RelA fragment 441–508 wt (domain or fragment, mouse, UniProt Q04207 441-508, looked up)
chain: LQFDADEDLGALLGNSTDPGVFTDLASVDNSEFQQLLNQGVSMSHSTAEPMLMEYPEAITRLVTGSQR
notes: RelA (p65), mouse, residues 441-508; also called N-terminal truncation to remove residues Lys425–His440; source: expressed as His6-GB1 fusion, purified; His6-tag cleaved by TEV protease; not shown: His6, N-terminal, cleaved; GB1, N-terminal, kept
B6: GST-RelA fragment (Lys425–Pro490) Met483Ala (domain or fragment, mouse, UniProt Q04207 425-490, looked up)
chain: KSTQAGEGTLSEALLHLQFDADEDLGALLGNSTDPGVFTDLASVDNSEFQQLLNQGVSASHSTAEP
notes: also called RelA–TA2 M483A (GST); source: E. coli BL21(DE3), purified (glutathione sepharose); not shown: GST, N-terminal, kept
B7: GST-RelA fragment (Lys425–Pro490), wild type (domain or fragment, mouse, UniProt Q04207 425-490, looked up)
chain: B6 chain with A59M
notes: also called GST-RelA–TA2; construct T11; source: E. coli BL21(DE3), purified (glutathione sepharose); not shown: GST, N-terminal, kept
B8: RelA–TA2 (residues 425–490), tag cleaved (domain or fragment, mouse, UniProt Q04207 425-490, looked up)
chain: B6 chain with A59M
notes: 15N/13C labelled for NMR; source: expressed as His6-GB1 fusion, purified (Ni-NTA under denaturing conditions, thrombin cleavage, reverse-phase HPLC); not shown: His6, N-terminal, cleaved; GB1, N-terminal, cleaved
B9: TAZ1 domain of mouse CBP (residues 340–439) (domain or fragment)
chain: not shown
notes: Isotopically labelled in some NMR samples; also called CBP–TAZ1; CH1; source: purified

What all share (settings): both partners purified
For assay [1], the target named is B9. Briefly: ITC; TAZ1 (169 to 185 µM) in the syringe, GB1-tagged RelA–TA2 peptide (10 to 18 µM) in the cell; 25°C; 20 mM Tris pH 8.0, 50 mM NaCl, 1 mM DTT; single-binding site model. Background: Isothermal titration calorimetry measures the heat released or taken up as one component is titrated into another.
In assay [2] the target is B9. Briefly: ITC; TAZ1 (169 to 185 µM) in the syringe, GB1-tagged RelA–TA2 peptide (10 to 18 µM) in the cell; 25°C; 20 mM Tris pH 8.0, 150 mM NaCl, 1 mM DTT; single-binding site model.
For assay [3], the target named is B9. Briefly: pull-down; GST-RelA fragments (20 µg) on glutathione sepharose beads with purified TAZ1 (10 µg); 20 mM Tris pH 7.5, 150 mM NaCl, 0.5 mM DTT; 4°C, 30 min; washes with 0.3% TritonX-100; SDS-PAGE.
Assay [4] concerns the target B9. Description: NMR structure; solution structure of the complex; refolded TAZ1 and RelA fragment mixed; 25°C, 20 mM Tris pH 6.5, 40 mM NaCl, 2 mM DTT; 0.7–1.2 mM protein.
Assay [5] addresses B1. Briefly: ITC; TAZ1 (169 to 185 µM) in the syringe, GB1-tagged RelA–TA2 peptide (10 to 18 µM) in the cell; 25°C; 20 mM Tris pH 8.0, 50 mM NaCl, 1 mM DTT; single-binding site model.
For assay [6], the target named is B2. Described as above.
Assay [7] concerns the target B1. Description: ITC; TAZ1 (169 to 185 µM) in the syringe, GB1-tagged RelA–TA2 peptide (10 to 18 µM) in the cell; 25°C; 20 mM Tris pH 8.0, 150 mM NaCl, 1 mM DTT; single-binding site model.
The target of assay [8] is B2. Described as above.
In assay [9] the target is B3. Described as above.
Assay [10] concerns the target B4. The assay is described as above.
For assay [11], the target named is B5. Described as above.

For orientation: Kd means a measure of binding affinity in units of concentration. Read a high Kd as weaker binding. For the molecule B1, the figures for the Kd in assay [1] and in assay [2] were 57 nM and 244 nM, respectively.

For B2, the Kd worked out at 41.2 nM in assay [1] and 174 nM in assay [2].

B3 yielded a Kd in assay [2] of 1600 nM.

Turning to B4, binding in [2] was put at a Kd of 1710 nM.

In turn, B5 returned a Kd in assay [2] of 387 nM.

Take B6: in assay [3], the binding result is listed as “binds”.

Turning to B7, the binding result in assay [3] is reported as “binds”.

For the molecule B8, the binding result in assay [4] was “binds”.

Consider B9, for which the dH was -5.9 kcal/mol in assay [5]; -6.5 kcal/mol in assay [6]; -7.2 kcal/mol in assay [7]; -7.8 kcal/mol in [8]; -5.4 kcal/mol in [9]; -2.4 kcal/mol in assay [10]. Besides, in assay [11], the dH is -8.3 kcal/mol.
